Data on 2 molecules can be found in patent publication US20100317598A1 (University of California, published 2010).

One assay deals with p53 (human, UniProt P04637 1-393). The assay can be described thus: cell-based or functional assay.
The next assay deals with cytochrome C (human, UniProt P99999 2-105). Briefly: immunopurification of cytochrome C from transfected HBL-100 cells, quantified immunoblot for APAF-1. On the technique in general: A western blot detects proteins with antibodies after separation by electrophoresis.
cytochrome C, sequence (P99999 2-105 limits assumed): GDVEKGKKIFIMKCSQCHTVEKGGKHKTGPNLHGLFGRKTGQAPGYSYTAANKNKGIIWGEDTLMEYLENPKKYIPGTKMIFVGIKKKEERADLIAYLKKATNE

p53, sequence (P04637 whole entry): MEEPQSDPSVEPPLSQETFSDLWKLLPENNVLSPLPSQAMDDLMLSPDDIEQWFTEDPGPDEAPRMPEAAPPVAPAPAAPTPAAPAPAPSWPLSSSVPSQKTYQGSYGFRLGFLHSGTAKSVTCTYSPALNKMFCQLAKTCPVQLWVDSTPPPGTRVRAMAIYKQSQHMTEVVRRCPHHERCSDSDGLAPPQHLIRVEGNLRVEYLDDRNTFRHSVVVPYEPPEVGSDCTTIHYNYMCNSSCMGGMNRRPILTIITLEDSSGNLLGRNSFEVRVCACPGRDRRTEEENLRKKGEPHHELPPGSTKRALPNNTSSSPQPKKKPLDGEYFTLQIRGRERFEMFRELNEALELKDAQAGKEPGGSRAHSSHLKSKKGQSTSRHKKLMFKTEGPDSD
Experimental for cytochrome C: Immunoblots were quantified using a Kodak 4000 Imaging Station and software. […] Values were obtained from three independent experiments.
HBL-100 and MCF-7 cells were exposed to UV light (6,600 microwatt seconds per square centimeter), or treated with adriamycin (0.2 μg ml⁻¹) for 24 h. […] Immunoblots shown were quantified on a Kodak 4000 Imaging Station and software.

B1: HA-tag-BRCA1 (772-1292) (other, not shown: small tags and cut ends)
chain: VPGTDYGTQESISLLEVSTLGKAKTEPNKCVSQCAAFENPKGLIHGCSKDNRNDTEGFKYPLGHEVNHSRETSIEMEESELDAQYLQNTFKVSKRQSFAPFSNPGNAEEECATFSAHSGSLKKQSPKVTFECEQKEENQGKNESNIKPVQTVNITAGFPVVGQKDKPVDNAKCSIKGGSRFCLSSQFRGNETGLITPNKHGLLQNPYRIPPLFPIKSFVKTKCKKNLLEENFEEHSMSPEREMGNENIPSTVSTISRNNIRENVFKEASSSNINEVGSSTNEVGSSINEIGSSDENIQAELGRNRGPKLNAMLRLGVLQPEVYKQSLPGSNCKHPEIKKQEYEEVVQTVNTDFSPYLISDNLEQPMGSSHASQVCSETPDDLLDDGEIKEDTSFAENDIKESSAVFSKSVQKGELSRSPSPFTHTHLAQGYRRGAKKLESSEENLSSEDEELPCFQHLLFGKVNNIPSQSTRHSTVATECLSKNTEENLLSLKNSLNDCSNQVILAKASQEHHLSEETKCS
B1: in the assay with p53, the “expression of p21 (immunoblot of immunopurified p21), HBL-100 cells” value came out at 5 fold and the “percentage of cells in apoptosis (annexin-V-FITC binding), HBL-100 cells” value is above 10 fold.

B2: APAF-1 (other, human, UniProt O14727 1-1248, looked up)
chain: MDAKARNCLLQHREALEKDIKTSYIMDHMISDGFLTISEEEKVRNEPTQQQRAAMLIKMILKKDNDSYVSFYNALLHEGYKDLAALLHDGIPVVSSSSGKDSVSGITSYVRTVLCEGGVPQRPVVFVTRKKLVNAIQQKLSKLKGEPGWVTIHGMAGCGKSVLAAEAVRDHSLLEGCFPGGVHWVSVGKQDKSGLLMKLQNLCTRLDQDESFSQRLPLNIEEAKDRLRILMLRKHPRSLLILDDVWDSWVLKAFDSQCQILLTTRDKSVTDSVMGPKYVVPVESSLGKEKGLEILSLFVNMKKADLPEQAHSIIKECKGSPLVVSLIGALLRDFPNRWEYYLKQLQNKQFKRIRKSSSYDYEALDEAMSISVEMLREDIKDYYTDLSILQKDVKVPTKVLCILWDMETEEVEDILQEFVNKSLLFCDRNGKSFRYYLHDLQVDFLTEKNCSQLQDLHKKIITQFQRYHQPHTLSPDQEDCMYWYNFLAYHMASAKMHKELCALMFSLDWIKAKTELVGPAHLIHEFVEYRHILDEKDCAVSENFQEFLSLNGHLLGRQPFPNIVQLGLCEPETSEVYQQAKLQAKQEVDNGMLYLEWINKKNITNLSRLVVRPHTDAVYHACFSEDGQRIASCGADKTLQVFKAETGEKLLEIKAHEDEVLCCAFSTDDRFIATCSVDKKVKIWNSMTGELVHTYDEHSEQVNCCHFTNSSHHLLLATGSSDCFLKLWDLNQKECRNTMFGHTNSVNHCRFSPDDKLLASCSADGTLKLWDATSANERKSINVKQFFLNLEDPQEDMEVIVKCCSWSADGARIMVAAKNKIFLFDIHTSGLLGEIHTGHHSTIQYCDFSPQNHLAVVALSQYCVELWNTDSRSKVADCRGHLSWVHGVMFSPDGSSFLTSSDDQTIRLWETKKVCKNSAVMLKQEVDVVFQENEVMVLAVDHIRRLQLINGRTGQIDYLTEAQVSCCCLSPHLQYIAFGDENGAIEILELVNNRIFQSRFQHKKTVWHIQFTADEKTLISSSDDAEIQVWNWQLDKCIFLRGHQETVKDFRLLKNSRLLSWSFDGTVKVWNIITGNKEKDFVCHQGTVLSCDISHDATKFSSTSADKTAKIWSFDLLLPLHELRGHNGCVRCSAFSVDSTLLATGDDNGEIRIWNVSNGELLHLCAPLSEEGAATHGGWVTDLCFSPDGKMLISAGGYIKWWNVVTGESSQTFYTNGTNLKKIHVSPDFKTYVTVDNLGILYILQTLE
For B2, in the assay with cytochrome C, the “fold increase of APAF-1 associated to cytochrome C (cells expressing BRCA1 (772-1292) against cells expressing control BRCA1 wt or BRCA1 (772-1036))” value is 3 fold.
